The record followed here is patent publication US20130005646A1 (Novo Nordisk, published 2013).

What all share (assay): cell-based or functional assay
Experiment [1] concerns the target T1, human calcitonin (a) receptor (human, UniProt P30988 25-474).
T1 sequence (looked up): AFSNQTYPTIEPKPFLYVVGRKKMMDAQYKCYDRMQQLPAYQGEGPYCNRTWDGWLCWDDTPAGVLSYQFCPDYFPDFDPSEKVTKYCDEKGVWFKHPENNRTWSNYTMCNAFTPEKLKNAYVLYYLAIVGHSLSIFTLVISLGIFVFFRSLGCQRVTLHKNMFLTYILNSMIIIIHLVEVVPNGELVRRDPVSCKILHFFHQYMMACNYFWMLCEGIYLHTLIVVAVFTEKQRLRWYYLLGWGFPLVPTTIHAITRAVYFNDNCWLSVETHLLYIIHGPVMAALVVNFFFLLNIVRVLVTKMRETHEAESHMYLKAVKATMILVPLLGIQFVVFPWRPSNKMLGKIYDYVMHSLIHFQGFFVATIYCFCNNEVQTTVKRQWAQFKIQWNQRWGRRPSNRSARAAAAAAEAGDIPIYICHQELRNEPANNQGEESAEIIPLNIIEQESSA

The target of experiment [2] is T2, rat calcitonin (a) receptor (rat, UniProt P32214 25-516).
T2 sequence (looked up): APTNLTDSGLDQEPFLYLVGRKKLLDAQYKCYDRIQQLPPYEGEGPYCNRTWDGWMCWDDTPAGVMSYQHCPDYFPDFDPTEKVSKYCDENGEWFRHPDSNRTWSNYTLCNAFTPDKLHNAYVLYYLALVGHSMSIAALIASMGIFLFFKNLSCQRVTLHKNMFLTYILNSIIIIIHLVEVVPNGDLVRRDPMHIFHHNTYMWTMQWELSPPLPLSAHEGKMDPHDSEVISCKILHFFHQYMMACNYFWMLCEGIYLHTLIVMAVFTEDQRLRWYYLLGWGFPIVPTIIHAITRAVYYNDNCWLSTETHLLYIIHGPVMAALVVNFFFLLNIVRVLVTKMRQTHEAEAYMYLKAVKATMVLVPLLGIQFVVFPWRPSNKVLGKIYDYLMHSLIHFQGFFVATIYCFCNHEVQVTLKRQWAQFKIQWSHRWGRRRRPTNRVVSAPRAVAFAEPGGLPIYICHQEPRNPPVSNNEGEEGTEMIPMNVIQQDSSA

Experiment [3] has as its target T3, human amylin 3(a) receptor (human calcitonin receptor + RAMP-3) (human, UniProt P30988 25-474; O60896 24-148).
T3 sequence (looked up) 1: T1 sequence (looked up)
T3 sequence (looked up) 2: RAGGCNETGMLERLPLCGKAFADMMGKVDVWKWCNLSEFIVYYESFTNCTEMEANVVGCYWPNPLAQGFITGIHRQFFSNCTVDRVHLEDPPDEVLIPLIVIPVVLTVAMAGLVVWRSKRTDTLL

The target of experiment [4] is T4, rat amylin 3(a) receptor (rat calcitonin(a) receptor + rat RAMP3) (rat, UniProt P32214 25-516; Q9JJ73 23-147).
T4 sequence (looked up) 1: T2 sequence (looked up)
T4 sequence (looked up) 2: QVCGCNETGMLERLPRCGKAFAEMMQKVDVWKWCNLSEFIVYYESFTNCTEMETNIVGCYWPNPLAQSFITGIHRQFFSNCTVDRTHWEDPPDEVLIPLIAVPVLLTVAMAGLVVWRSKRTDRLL

Starred links: 1 amine or outer side, 2 acyl side, 3 side chain; linkers in the order of their positions; H or OH if unused. Positions of bridges follow the written chain, without caps; N, C: chain ends. Non-standard residues stand in square brackets, D forms with d. *: point of attachment. C20 diacid = O=C(O)CCCCCCCCCCCCCCCCCCC(=O)*; 19‑carboxyheptadecanoyl = not defined here; C18 diacid = O=C(O)CCCCCCCCCCCCCCCCC(=O)*; γGlu = O=C(O)[C@H](CCC(=O)[*:2])N[*:1]; AEEA = NCCOCCOCC(=O)O

B1: N-alpha-[(S)-4-Carboxy-4-(17-carboxyheptadecanoylamino)butyryl]-[Glu14,His17]-pramlintide (peptide)
peptide: {C18 diacid-γGlu}-KCNTATCATQRLAEFLHHSSNNFGPILPPTNVGSNTY-NH2
modifications: disulfide 2-7; not fully specified; printed as N-alpha-[(S)-4-Carboxy-4-(17-carboxyheptadecanoylamino)butyryl]-[Glu14,His17]-pramlintide
Turning to B1, the “CTa receptor human EC50” value in experiment [1] stood at 0.0792 nM. Moreover, the “CTa receptor rat EC50” value in experiment [2] was 0.433 nM. Moreover, in experiment [3], the “Amylin receptor human EC50” value was determined as 0.0469 nM. In experiment [4], the “Amylin receptor rat EC50” value was 0.122 nM.

B2: N-alpha-[(S)-4-Carboxy-4-(17-carboxyheptadecanoylamino)butyryl]-Glu-[Glu14,His17]-pramlintide (peptide)
peptide: {C18 diacid-γGlu}-EKCNTATCATQRLAEFLHHSSNNFGPILPPTNVGSNTY-NH2
modifications: disulfide 3-8
SMILES: CC[C@H](C)[C@H](NC(=O)[C@@H]1CCCN1C(=O)CNC(=O)[C@H](Cc1ccccc1)NC(=O)[C@H](CC(N)=O)NC(=O)[C@H](CC(N)=O)NC(=O)[C@H](CO)NC(=O)[C@H](CO)NC(=O)[C@H](Cc1c[nH]cn1)NC(=O)[C@H](Cc1c[nH]cn1)NC(=O)[C@H](CC(C)C)NC(=O)[C@H](Cc1ccccc1)NC(=O)[C@H](CCC(=O)O)NC(=O)[C@H](C)NC(=O)[C@H](CC(C)C)NC(=O)[C@H](CCCNC(=N)N)NC(=O)[C@H](CCC(N)=O)NC(=O)[C@@H](NC(=O)[C@H](C)NC(=O)[C@@H]1CSSC[C@H](NC(=O)[C@H](CCCCN)NC(=O)[C@H](CCC(=O)O)NC(=O)CC[C@H](NC(=O)CCCCCCCCCCCCCCCCC(=O)O)C(=O)O)C(=O)N[C@@H](CC(N)=O)C(=O)N[C@@H]([C@@H](C)O)C(=O)N[C@@H](C)C(=O)N[C@@H]([C@@H](C)O)C(=O)N1)[C@@H](C)O)C(=O)N[C@@H](CC(C)C)C(=O)N1CCC[C@H]1C(=O)N1CCC[C@H]1C(=O)N[C@H](C(=O)N[C@@H](CC(N)=O)C(=O)N[C@H](C(=O)NCC(=O)N[C@@H](CO)C(=O)N[C@@H](CC(N)=O)C(=O)N[C@H](C(=O)N[C@@H](Cc1ccc(O)cc1)C(N)=O)[C@@H](C)O)C(C)C)[C@@H](C)O
With B2, the “CTa receptor human EC50” value in experiment [1] was 0.274 nM. Also, in experiment [2], the “CTa receptor rat EC50” value amounted to 2.43 nM. In experiment [3], the “Amylin receptor human EC50” value is 0.0739 nM. In addition, the “Amylin receptor rat EC50” value in experiment [4] worked out at 0.135 nM.

B3: N-alpha-[(S)-4-Carboxy-4-(17-carboxyheptadecanoylamino)butyryl]-[His1,Glu14,His17]-pramlintide (peptide)
peptide: {C18 diacid-γGlu}-HCNTATCATQRLAEFLHHSSNNFGPILPPTNVGSNTY-NH2
modifications: disulfide 2-7; not fully specified; printed as N-alpha-[(S)-4-Carboxy-4-(17-carboxyheptadecanoylamino)butyryl]-[His1,Glu14,His17]-pramlintide
Regarding B3, the “CTa receptor human EC50” value in experiment [1] turned out to be 0.112 nM. The “CTa receptor rat EC50” value in experiment [2] was found to be 0.375 nM. Besides, the “Amylin receptor human EC50” value in experiment [3] came out at 0.0425 nM. Besides, in experiment [4], the “Amylin receptor rat EC50” value came to 0.015 nM.

B4: N-alpha-[(S)-4-Carboxy-4-(19-carboxynonadecanoylamino)butyryl]-[Glu14,Arg17,His35]-pramlintide (peptide)
peptide: {C20 diacid-γGlu}-KCNTATCATQRLAEFLRHSSNNFGPILPPTNVGSHTY-NH2
modifications: disulfide 2-7
SMILES: CC[C@H](C)[C@H](NC(=O)[C@@H]1CCCN1C(=O)CNC(=O)[C@H](Cc1ccccc1)NC(=O)[C@H](CC(N)=O)NC(=O)[C@H](CC(N)=O)NC(=O)[C@H](CO)NC(=O)[C@H](CO)NC(=O)[C@H](Cc1c[nH]cn1)NC(=O)[C@H](CCCNC(=N)N)NC(=O)[C@H](CC(C)C)NC(=O)[C@H](Cc1ccccc1)NC(=O)[C@H](CCC(=O)O)NC(=O)[C@H](C)NC(=O)[C@H](CC(C)C)NC(=O)[C@H](CCCNC(=N)N)NC(=O)[C@H](CCC(N)=O)NC(=O)[C@@H](NC(=O)[C@H](C)NC(=O)[C@@H]1CSSC[C@H](NC(=O)[C@H](CCCCN)NC(=O)CC[C@H](NC(=O)CCCCCCCCCCCCCCCCCCC(=O)O)C(=O)O)C(=O)N[C@@H](CC(N)=O)C(=O)N[C@@H]([C@@H](C)O)C(=O)N[C@@H](C)C(=O)N[C@@H]([C@@H](C)O)C(=O)N1)[C@@H](C)O)C(=O)N[C@@H](CC(C)C)C(=O)N1CCC[C@H]1C(=O)N1CCC[C@H]1C(=O)N[C@H](C(=O)N[C@@H](CC(N)=O)C(=O)N[C@H](C(=O)NCC(=O)N[C@@H](CO)C(=O)N[C@@H](Cc1c[nH]cn1)C(=O)N[C@H](C(=O)N[C@@H](Cc1ccc(O)cc1)C(N)=O)[C@@H](C)O)C(C)C)[C@@H](C)O
B4: in experiment [1], the “CTa receptor human EC50” value came out at 0.387 nM. In experiment [2], the “CTa receptor rat EC50” value was 2.84 nM. Besides, the “Amylin receptor human EC50” value in experiment [3] was 0.111 nM. In addition, the “Amylin receptor rat EC50” value in experiment [4] is 0.511 nM.

B5: N-alpha-[(S)-4-Carboxy-4-(19-carboxynonadecanoylamino)butyryl]-[Glu14,His17,His35]-pramlintide (peptide)
peptide: {C20 diacid-γGlu}-KCNTATCATQRLAEFLHHSSNNFGPILPPTNVGSHTY-NH2
modifications: disulfide 2-7
SMILES: CC[C@H](C)[C@H](NC(=O)[C@@H]1CCCN1C(=O)CNC(=O)[C@H](Cc1ccccc1)NC(=O)[C@H](CC(N)=O)NC(=O)[C@H](CC(N)=O)NC(=O)[C@H](CO)NC(=O)[C@H](CO)NC(=O)[C@H](Cc1c[nH]cn1)NC(=O)[C@H](Cc1c[nH]cn1)NC(=O)[C@H](CC(C)C)NC(=O)[C@H](Cc1ccccc1)NC(=O)[C@H](CCC(=O)O)NC(=O)[C@H](C)NC(=O)[C@H](CC(C)C)NC(=O)[C@H](CCCNC(=N)N)NC(=O)[C@H](CCC(N)=O)NC(=O)[C@@H](NC(=O)[C@H](C)NC(=O)[C@@H]1CSSC[C@H](NC(=O)[C@H](CCCCN)NC(=O)CC[C@H](NC(=O)CCCCCCCCCCCCCCCCCCC(=O)O)C(=O)O)C(=O)N[C@@H](CC(N)=O)C(=O)N[C@@H]([C@@H](C)O)C(=O)N[C@@H](C)C(=O)N[C@@H]([C@@H](C)O)C(=O)N1)[C@@H](C)O)C(=O)N[C@@H](CC(C)C)C(=O)N1CCC[C@H]1C(=O)N1CCC[C@H]1C(=O)N[C@H](C(=O)N[C@@H](CC(N)=O)C(=O)N[C@H](C(=O)NCC(=O)N[C@@H](CO)C(=O)N[C@@H](Cc1c[nH]cn1)C(=O)N[C@H](C(=O)N[C@@H](Cc1ccc(O)cc1)C(N)=O)[C@@H](C)O)C(C)C)[C@@H](C)O
As to B5, the “CTa receptor human EC50” value in experiment [1] came to 0.163 nM. The “CTa receptor rat EC50” value in experiment [2] turned out to be 0.673 nM. Also, the “Amylin receptor human EC50” value in experiment [3] was found to be 0.152 nM. Besides, in experiment [4], the “Amylin receptor rat EC50” value came out at 0.262 nM.

B6: N-alpha-[(S)-4-Carboxy-4-(19-carboxynonadecanoylamino)butyryl]-Glu-[Glu14,His17,His35]-pramlintide (peptide)
peptide: {C20 diacid-γGlu}-EKCNTATCATQRLAEFLHHSSNNFGPILPPTNVGSHTY-NH2
modifications: disulfide 3-8; not fully specified; printed as N-alpha-[(S)-4-Carboxy-4-(19-carboxynonadecanoylamino)butyryl]-Glu-[Glu14,His17,His35]-pramlintide
Regarding B6, the “CTa receptor human EC50” value in experiment [1] came to 0.352 nM. Moreover, the “CTa receptor rat EC50” value in experiment [2] was found to be 4.97 nM. The “Amylin receptor human EC50” value in experiment [3] was found to be 0.299 nM. In addition, the “Amylin receptor rat EC50” value in experiment [4] was 0.643 nM.

B7: N-alpha-[(S)-4-Carboxy-4-(19-carboxynonadecanoylamino)butyryl]-[Glu14,His17,Pro37]-pramlintide (peptide)
peptide: {C20 diacid-γGlu}-KCNTATCATQRLAEFLHHSSNNFGPILPPTNVGSNTP-NH2
modifications: disulfide 2-7; not fully specified; printed as N-alpha-[(S)-4-Carboxy-4-(19-carboxynonadecanoylamino)butyryl]-[Glu14,His17,Pro37]-pramlintide
Take B7: the “CTa receptor human EC50” value in experiment [1] was 0.0537 nM. The “CTa receptor rat EC50” value in experiment [2] came to 0.076 nM. Moreover, the “Amylin receptor human EC50” value in experiment [3] came to 0.062 nM. Also, in experiment [4], the “Amylin receptor rat EC50” value was determined as 0.16 nM.

B8: N-alpha-[2-(2-{2-[2-(2-{2-[(S)-4-Carboxy-4-(19-carboxyheptadecanoylamino)butyrylamino]ethoxy}ethoxy)acetylamino]ethoxy}ethoxy)acetyl]-D-Arg-D-Arg-[Glu14,His17,A … (peptide)
peptide: {19‑carboxyheptadecanoyl-γGlu-AEEA-AEEA}-[dR][dR]KCNTATCATQRLAEFLHRSSANFGPILPPTNVGSSTY-NH2
modifications: disulfide 4-9; reading uncertain; also: printed as N-alpha-[2-(2-{2-[2-(2-{2-[(S)-4-Carboxy-4-(19-carboxyheptadecanoylamino)butyrylamino]ethoxy}ethoxy)acetylamino]ethoxy}ethoxy)acetyl]-D-Arg-D-Arg-[Glu14,His17,Arg18,Ala21,Ser35]-pramlintide
Regarding B8, the “CTa receptor human EC50” value in experiment [1] was determined as 1.11 nM. In experiment [2], the “CTa receptor rat EC50” value turned out to be 4.48 nM. Further, the “Amylin receptor human EC50” value in experiment [3] was 0.149 nM. The “Amylin receptor rat EC50” value in experiment [4] turned out to be 0.233 nM.
